# The supplement of paper PMC6755084
# B1: minF1; the commonest letter at each place (parent)
# chain: GAGACCGCAACTGAAAAGTTGTTATCAGAAATGGATGGGTTGAATTTCTGCACGTAGAAGCAAAAGGC
# Variants of: B1
# Test: fraction ligated after 30 min (ligated reads / total reads); higher = more ligase activity
# Details: with F1*subA RNA substrate (template-directed ligation), 42 °C
# In short: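 RNAs for minimized ligase ribozyme variants were transcribed with T7 from PCR-amplified oligo-pool templates and purified on gels. Ligated and unligated species were resolved on gels, converted to cDNA with barcoded primers, and read on a MiSeq with core bases filtered at quality ≥30. Fraction ligated per variant is the ratio of ligated reads to total reads.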
row,Variant,fraction ligated
1,G28T A31G,0.82
2,G28T A31C,0.82
3,G28T A31T,0.827
4,A29T,0.815
5,A29C,0.823
6,A29G,0.827
7,A30G T36C,0.0152
8,A30G T36A,0.0286
9,A30G T36G,0.0634
10,A30C A43G,0.0454
11,A30C A43C,0.0543
12,A30C A43T,0.0731
13,A31C A44C,0.655
14,A31C A44G,0.754
15,A31C A44T,0.794
16,A29C A31G,0.808
17,A29C A31T,0.842
18,A29C A31C,0.791
19,A31G G34T,0.00852
20,A31G G34C,0.00824
21,A31G G34A,0.0934

row,Variant,fraction ligated
1,G28A T36G,0.0443
2,G28A T36C,0.0146
3,G28A T36A,0.0244
4,A29G G37A,0.0118
5,A29G G37C,0.0058
6,A29G G37T,0.0206
7,A29T G34C,0.00521
8,A29T G34T,0.00673
9,A29T G34A,0.0752
10,A30C G37A,0.009
11,A30C G37T,0.01
12,A30C G37C,0.00447
13,G28C A29G,0.812
14,G28C A29T,0.831
15,G28C A29C,0.795
16,A29C A30T,0.81
17,A29C A30G,0.827
18,A29C A30C,0.563
19,G28A G42C,0.0107
20,G28A G42A,0.279
21,G28A G42T,0.0941

row,Variant,fraction ligated
1,A30C A35T,0.01
2,A30C A35G,0.159
3,A30C A35C,0.00575
4,G28C G33A,0.772
5,G28C G33T,0.639
6,G28C G33C,0.641
7,A30C A31G,0.806
8,A30C A31T,0.771
9,A30C A31C,0.714
10,A30C G42A,0.217
11,A30C G42T,0.0701
12,A30C G42C,0.00724
13,G28T A43C,0.117
14,G28T A43T,0.158
15,G28T A43G,0.0967
16,A29G T36A,0.0285
17,A29G T36C,0.0189
18,A29G T36G,0.0397
19,A29T A35G,0.153
20,A29T A35T,0.0234
21,A29T A35C,0.00991

row,Variant,fraction ligated
1,G28T G33A,0.814
2,G28T G33T,0.725
3,G28T G33C,0.764
4,A30G A35T,0.0595
5,A30G A35G,0.4
6,A30G A35C,0.0448
7,A29G T32G,0.0222
8,A29G T32C,0.0215
9,A29G T32A,0.0412
10,A30G A43C,0.179
11,A30G A43G,0.14
12,A30G A43T,0.188
13,A30C A44G,0.686
14,A30C A44C,0.565
15,A30C A44T,0.703
16,A29T G42C,0.00612
17,A29T G42A,0.269
18,A29T G42T,0.0835
19,A29G A44G,0.753
20,A29G A44T,0.76
21,A29G A44C,0.649
